This experiment addresses T1, purified recombinant ectodomain of human MuSK fused to myc (hMuSKect-myc), wild type (human, UniProt O15146 24-495).
T1 construct: muscle-specific receptor tyrosine kinase (MuSK), human, ectodomain (Ig1, Ig2, Ig3, C6 box, Ig4); It holds the C6 box, since a ΔC6 form was made from it; also called Wt; source: HEK293, transfected with phMUSKect-myc; in lysate for co-IP; not shown: myc, C-terminal, kept
T1 sequence (looked up): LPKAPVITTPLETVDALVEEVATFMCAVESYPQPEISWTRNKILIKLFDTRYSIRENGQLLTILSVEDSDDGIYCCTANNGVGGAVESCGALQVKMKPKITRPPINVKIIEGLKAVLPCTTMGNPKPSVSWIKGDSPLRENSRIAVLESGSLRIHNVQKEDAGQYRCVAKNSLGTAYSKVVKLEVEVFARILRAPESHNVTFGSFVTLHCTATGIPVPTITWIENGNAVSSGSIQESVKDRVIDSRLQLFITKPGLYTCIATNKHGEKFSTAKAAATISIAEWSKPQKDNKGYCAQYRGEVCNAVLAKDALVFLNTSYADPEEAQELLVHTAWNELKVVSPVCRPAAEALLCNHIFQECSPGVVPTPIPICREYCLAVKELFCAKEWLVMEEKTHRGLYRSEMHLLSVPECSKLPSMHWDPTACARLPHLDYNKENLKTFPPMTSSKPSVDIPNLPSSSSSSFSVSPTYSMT
The experiment can be described thus: ELISA; in vitro plate-binding assay: 0.15 ug hMuSKect-myc coated on a Maxi-Sorp plate, blocked with 1% BSA; 0.12 ug hLRP4N-FLAG overlaid with or without 0.24 ug rat neural agrin, room temperature 2 h; bound hLRP4N-FLAG read with anti-FLAG-HRP, normalised to that without agrin. The settings on record: both partners purified. On the technique in general: ELISA stands for enzyme-linked immunosorbent assay.

B1: N-terminal ectodomain of human LRP4 fused to FLAG (hLRP4N-FLAG) (domain or fragment, UniProt O75096 21-1725, looked up)
chain: SSPECACGRSHFTCAVSALGECTCIPAQWQCDGDNDCGDHSDEDGCILPTCSPLDFHCDNGKCIRRSWVCDGDNDCEDDSDEQDCPPRECEEDEFPCQNGYCIRSLWHCDGDNDCGDNSDEQCDMRKCSDKEFRCSDGSCIAEHWYCDGDTDCKDGSDEENCPSAVPAPPCNLEEFQCAYGRCILDIYHCDGDDDCGDWSDESDCSSHQPCRSGEFMCDSGLCINAGWRCDGDADCDDQSDERNCTTSMCTAEQFRCHSGRCVRLSWRCDGEDDCADNSDEENCENTGSPQCALDQFLCWNGRCIGQRKLCNGVNDCGDNSDESPQQNCRPRTGEENCNVNNGGCAQKCQMVRGAVQCTCHTGYRLTEDGHTCQDVNECAEEGYCSQGCTNSEGAFQCWCETGYELRPDRRSCKALGPEPVLLFANRIDIRQVLPHRSEYTLLLNNLENAIALDFHHRRELVFWSDVTLDRILRANLNGSNVEEVVSTGLESPGGLAVDWVHDKLYWTDSGTSRIEVANLDGAHRKVLLWQNLEKPRAIALHPMEGTIYWTDWGNTPRIEASSMDGSGRRIIADTHLFWPNGLTIDYAGRRMYWVDAKHHVIERANLDGSHRKAVISQGLPHPFAITVFEDSLYWTDWHTKSINSANKFTGKNQEIIRNKLHFPMDIHTLHPQRQPAGKNRCGDNNGGCTHLCLPSGQNYTCACPTGFRKISSHACAQSLDKFLLFARRMDIRRISFDTEDLSDDVIPLADVRSAVALDWDSRDDHVYWTDVSTDTISRAKWDGTGQEVVVDTSLESPAGLAIDWVTNKLYWTDAGTDRIEVANTDGSMRTVLIWENLDRPRDIVVEPMGGYMYWTDWGASPKIERAGMDASGRQVIISSNLTWPNGLAIDYGSQRLYWADAGMKTIEFAGLDGSKRKVLIGSQLPHPFGLTLYGERIYWTDWQTKSIQSADRLTGLDRETLQENLENLMDIHVFHRRRPPVSTPCAMENGGCSHLCLRSPNPSGFSCTCPTGINLLSDGKTCSPGMNSFLIFARRIDIRMVSLDIPYFADVVVPINITMKNTIAIGVDPQEGKVYWSDSTLHRISRANLDGSQHEDIITTGLQTTDGLAVDAIGRKVYWTDTGTNRIEVGNLDGSMRKVLVWQNLDSPRAIVLYHEMGFMYWTDWGENAKLERSGMDGSDRAVLINNNLGWPNGLTVDKASSQLLWADAHTERIEAADLNGANRHTLVSPVQHPYGLTLLDSYIYWTDWQTRSIHRADKGTGSNVILVRSNLPGLMDMQAVDRAQPLGFNKCGSRNGGCSHLCLPRPSGFSCACPTGIQLKGDGKTCDPSPETYLLFSSRGSIRRISLDTSDHTDVHVPVPELNNVISLDYDSVDGKVYYTDVFLDVIRRADLNGSNMETVIGRGLKTTDGLAVDWVARNLYWTDTGRNTIEASRLDGSCRKVLINNSLDEPRAIAVFPRKGYLFWTDWGHIAKIERANLDGSERKVLINTDLGWPNGLTLDYDTRRIYWVDAHLDRIESADLNGKLRQVLVSHVSHPFALTQQDRWIYWTDWQTKSIQRVDKYSGRNKETVLANVEGLMDIIVVSPQRQTGTNACGVNNGGCTHLCFARASDFVCACPDEPDSRPCSLVPGLVPPAPRATGMSEKSPVLPNTPPTTLYSSTTRTRTSLEEVEGRCSERDARLGLCARSNDAVPAAPGEGLHIS
notes: low-density lipoprotein receptor-related protein 4 (LRP4), human, printed as 'the N-terminal ectodomain of human LRP4'; also called hLRP4-FLAG; source: HEK293, transfected with phLRP4N-FLAG; in lysate for co-IP; not shown: FLAG, C-terminal, kept
With B1, the “fold increase of bound hLRP4N-FLAG with agrin over without agrin” value worked out at 36 fold.

Values taken from article PMC4564764, “Collagen Q and anti-MuSK autoantibody competitively suppress agrin/LRP4/MuSK signaling” (Scientific Reports, 2015).
